Columns and labels:
[1] = biological target: T1, HLA-B*0702 molecule on HLA-B*0702 transfected TAP deficient T2 cells (T2-B7) (human); assay: MHC stabilization assay on T2-B7 cells, ME-1 staining; ratio of concentration inducing 20% of HLA-B*0702 expression against reference peptide CMV265-274; conditions: remark: other sources report otherwise
[2] = biological target: T1, HLA-B*0702 molecule on HLA-B*0702 …; assay: MHC stabilization assay on T2-B7 cells, flow cytometry with ME.1; ratio of concentration giving 20% of maximal binding against reference peptide R10TV; conditions: remark: other sources report otherwise

RA (relative affinity) [1]	relative avidity [2]	Binder
> 10	–	DPRRLVQLL [hTERT peptide p444 (…, residues 444-452)]
–	4.7	RPAEEATSL [hTERT peptide p277 (…, residues 277-285)]

From patent publication US20090175892A1
